Measured values taken from US20140087995A1 (published 2014).
Numbered stars: 1 amine (or outer) side, 2 acyl side, 3 side chain; on linkers, the order of the positions; unused ones are H or OH. Bridge positions count the residues as written; N and C are the ends. Side chains are listed from the residue outwards. Ends that are not written are not given here. * marks the point of attachment. C20 diacid = O=C(O)CCCCCCCCCCCCCCCCCCC(=O)*; γGlu = O=C(O)[C@H](CCC(=O)[*:2])N[*:1]; AEEA = NCCOCCOCC(=O)O

T1: rat calcitonin receptor (rat, UniProt P32214 25-516)
T1 construct: whole, on cells; Membranes prepared from transiently transfected BHK tk'ts 13 cells (Assay VIII); also called rCTR; rCT
T1 sequence (looked up): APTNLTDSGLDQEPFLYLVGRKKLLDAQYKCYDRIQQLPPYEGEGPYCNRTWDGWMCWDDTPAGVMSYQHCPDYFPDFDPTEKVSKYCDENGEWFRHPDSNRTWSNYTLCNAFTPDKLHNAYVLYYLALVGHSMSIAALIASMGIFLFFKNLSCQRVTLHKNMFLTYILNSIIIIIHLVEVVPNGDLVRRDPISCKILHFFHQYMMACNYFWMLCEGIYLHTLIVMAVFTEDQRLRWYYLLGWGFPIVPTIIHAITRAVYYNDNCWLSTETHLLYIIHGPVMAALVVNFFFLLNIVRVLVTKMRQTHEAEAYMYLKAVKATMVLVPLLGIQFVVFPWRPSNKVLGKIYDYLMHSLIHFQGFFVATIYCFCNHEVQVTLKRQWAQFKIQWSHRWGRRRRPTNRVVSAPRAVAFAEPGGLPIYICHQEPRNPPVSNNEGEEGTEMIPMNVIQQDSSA

T2: human calcitonin receptor (human, UniProt P30988 25-474)
T2 construct: whole, on cells; Membranes prepared from a stably transfected BHK cell line (Assay VII); also called hCTR; hCT
T2 sequence (looked up): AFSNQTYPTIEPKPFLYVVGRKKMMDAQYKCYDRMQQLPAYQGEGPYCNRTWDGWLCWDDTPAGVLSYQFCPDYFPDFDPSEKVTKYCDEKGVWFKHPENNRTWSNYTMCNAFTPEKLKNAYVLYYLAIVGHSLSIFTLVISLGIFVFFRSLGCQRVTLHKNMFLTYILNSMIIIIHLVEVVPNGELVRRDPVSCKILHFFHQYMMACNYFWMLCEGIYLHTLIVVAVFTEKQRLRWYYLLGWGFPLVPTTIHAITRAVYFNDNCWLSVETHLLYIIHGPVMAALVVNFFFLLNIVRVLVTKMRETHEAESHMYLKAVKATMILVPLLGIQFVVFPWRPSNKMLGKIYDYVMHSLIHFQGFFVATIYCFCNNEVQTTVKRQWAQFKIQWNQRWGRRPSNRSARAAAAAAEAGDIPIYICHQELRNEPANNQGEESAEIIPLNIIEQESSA

T3: rat amylin receptor (rat calcitonin receptor + rat RAMP 3) (rat, UniProt P32214 25-516; Q9JJ73 23-147)
T3 construct: whole, on cells; Membranes prepared from transiently transfected BHK tk'ts 13 cells (Assay VI); also called rAmylin-R; rAmylin
T3 sequence (looked up) 1: T1 sequence (looked up)
T3 sequence (looked up) 2: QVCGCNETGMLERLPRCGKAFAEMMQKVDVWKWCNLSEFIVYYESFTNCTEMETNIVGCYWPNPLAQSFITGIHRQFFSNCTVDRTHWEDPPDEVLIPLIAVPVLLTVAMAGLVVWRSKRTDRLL

B1: N^ε1-[2-[2-[2-[[(4S)-4-carboxy-4-(19-carboxynonadecanoylamino)butanoyl]amino]ethoxy]ethoxy]acetyl]-[Arg17,Pro21,Pro27,Pro28,Pro34]-h-amylin (peptide)
peptide: K([AEEA-γGlu-C20 diacid])CNTATCATQRLANFLRHSSPNFGAIPPSTNVGPNTY-NH2
modifications: disulfide 2-7; N-terminus assumed
SMILES: CC[C@H](C)[C@H](NC(=O)[C@H](C)NC(=O)CNC(=O)[C@H](Cc1ccccc1)NC(=O)[C@H](CC(N)=O)NC(=O)[C@@H]1CCCN1C(=O)[C@H](CO)NC(=O)[C@H](CO)NC(=O)[C@H](Cc1c[nH]cn1)NC(=O)[C@H](CCCNC(=N)N)NC(=O)[C@H](CC(C)C)NC(=O)[C@H](Cc1ccccc1)NC(=O)[C@H](CC(N)=O)NC(=O)[C@H](C)NC(=O)[C@H](CC(C)C)NC(=O)[C@H](CCCNC(=N)N)NC(=O)[C@H](CCC(N)=O)NC(=O)[C@@H](NC(=O)[C@H](C)NC(=O)[C@@H]1CSSC[C@H](NC(=O)[C@@H](N)CCCCNC(=O)COCCOCCNC(=O)CC[C@H](NC(=O)CCCCCCCCCCCCCCCCCCC(=O)O)C(=O)O)C(=O)N[C@@H](CC(N)=O)C(=O)N[C@@H]([C@@H](C)O)C(=O)N[C@@H](C)C(=O)N[C@@H]([C@@H](C)O)C(=O)N1)[C@@H](C)O)C(=O)N1CCC[C@H]1C(=O)N1CCC[C@H]1C(=O)N[C@@H](CO)C(=O)N[C@H](C(=O)N[C@@H](CC(N)=O)C(=O)N[C@H](C(=O)NCC(=O)N1CCC[C@H]1C(=O)N[C@@H](CC(N)=O)C(=O)N[C@H](C(=O)N[C@@H](Cc1ccc(O)cc1)C(N)=O)[C@@H](C)O)C(C)C)[C@@H](C)O
notes: Analogue of human amylin; also called compound 55
B2: N^ε1-[2-[2-[2-[[(4S)-4-carboxy-4-(19-carboxynonadecanoylamino)butanoyl]amino]ethoxy]ethoxy]acetyl]-[Arg17,Pro21,Pro27,Pro29,Pro31]-h-amylin (peptide)
peptide: K([AEEA-γGlu-C20 diacid])CNTATCATQRLANFLRHSSPNFGAIPSPTPVGSNTY-NH2
modifications: disulfide 2-7; N-terminus assumed
SMILES: CC[C@H](C)[C@H](NC(=O)[C@H](C)NC(=O)CNC(=O)[C@H](Cc1ccccc1)NC(=O)[C@H](CC(N)=O)NC(=O)[C@@H]1CCCN1C(=O)[C@H](CO)NC(=O)[C@H](CO)NC(=O)[C@H](Cc1c[nH]cn1)NC(=O)[C@H](CCCNC(=N)N)NC(=O)[C@H](CC(C)C)NC(=O)[C@H](Cc1ccccc1)NC(=O)[C@H](CC(N)=O)NC(=O)[C@H](C)NC(=O)[C@H](CC(C)C)NC(=O)[C@H](CCCNC(=N)N)NC(=O)[C@H](CCC(N)=O)NC(=O)[C@@H](NC(=O)[C@H](C)NC(=O)[C@@H]1CSSC[C@H](NC(=O)[C@@H](N)CCCCNC(=O)COCCOCCNC(=O)CC[C@H](NC(=O)CCCCCCCCCCCCCCCCCCC(=O)O)C(=O)O)C(=O)N[C@@H](CC(N)=O)C(=O)N[C@@H]([C@@H](C)O)C(=O)N[C@@H](C)C(=O)N[C@@H]([C@@H](C)O)C(=O)N1)[C@@H](C)O)C(=O)N1CCC[C@H]1C(=O)N[C@@H](CO)C(=O)N1CCC[C@H]1C(=O)N[C@H](C(=O)N1CCC[C@H]1C(=O)N[C@H](C(=O)NCC(=O)N[C@@H](CO)C(=O)N[C@@H](CC(N)=O)C(=O)N[C@H](C(=O)N[C@@H](Cc1ccc(O)cc1)C(N)=O)[C@@H](C)O)C(C)C)[C@@H](C)O
notes: Analogue of human amylin; also called compound 54
B3: N^ε1-[2-[2-[2-[[(4S)-4-carboxy-4-(19-carboxynonadecanoylamino)butanoyl]amino]ethoxy]ethoxy]acetyl]-[Arg17,Pro21,Pro27,Pro29,Pro34]-h-amylin (peptide)
peptide: K([AEEA-γGlu-C20 diacid])CNTATCATQRLANFLRHSSPNFGAIPSPTNVGPNTY-NH2
modifications: disulfide 2-7; N-terminus assumed
SMILES: CC[C@H](C)[C@H](NC(=O)[C@H](C)NC(=O)CNC(=O)[C@H](Cc1ccccc1)NC(=O)[C@H](CC(N)=O)NC(=O)[C@@H]1CCCN1C(=O)[C@H](CO)NC(=O)[C@H](CO)NC(=O)[C@H](Cc1c[nH]cn1)NC(=O)[C@H](CCCNC(=N)N)NC(=O)[C@H](CC(C)C)NC(=O)[C@H](Cc1ccccc1)NC(=O)[C@H](CC(N)=O)NC(=O)[C@H](C)NC(=O)[C@H](CC(C)C)NC(=O)[C@H](CCCNC(=N)N)NC(=O)[C@H](CCC(N)=O)NC(=O)[C@@H](NC(=O)[C@H](C)NC(=O)[C@@H]1CSSC[C@H](NC(=O)[C@@H](N)CCCCNC(=O)COCCOCCNC(=O)CC[C@H](NC(=O)CCCCCCCCCCCCCCCCCCC(=O)O)C(=O)O)C(=O)N[C@@H](CC(N)=O)C(=O)N[C@@H]([C@@H](C)O)C(=O)N[C@@H](C)C(=O)N[C@@H]([C@@H](C)O)C(=O)N1)[C@@H](C)O)C(=O)N1CCC[C@H]1C(=O)N[C@@H](CO)C(=O)N1CCC[C@H]1C(=O)N[C@H](C(=O)N[C@@H](CC(N)=O)C(=O)N[C@H](C(=O)NCC(=O)N1CCC[C@H]1C(=O)N[C@@H](CC(N)=O)C(=O)N[C@H](C(=O)N[C@@H](Cc1ccc(O)cc1)C(N)=O)[C@@H](C)O)C(C)C)[C@@H](C)O
notes: Analogue of human amylin; also called compound 56
B4: N^ε1-[2-[2-[2-[[(4S)-4-carboxy-4-(19-carboxynonadecanoylamino)butanoyl]amino]ethoxy]ethoxy]acetyl]-[Arg17,Pro21,Pro27,Pro31,His35]-h-amylin (peptide)
peptide: K([AEEA-γGlu-C20 diacid])CNTATCATQRLANFLRHSSPNFGAIPSSTPVGSHTY-NH2
modifications: disulfide 2-7; N-terminus assumed
SMILES: CC[C@H](C)[C@H](NC(=O)[C@H](C)NC(=O)CNC(=O)[C@H](Cc1ccccc1)NC(=O)[C@H](CC(N)=O)NC(=O)[C@@H]1CCCN1C(=O)[C@H](CO)NC(=O)[C@H](CO)NC(=O)[C@H](Cc1c[nH]cn1)NC(=O)[C@H](CCCNC(=N)N)NC(=O)[C@H](CC(C)C)NC(=O)[C@H](Cc1ccccc1)NC(=O)[C@H](CC(N)=O)NC(=O)[C@H](C)NC(=O)[C@H](CC(C)C)NC(=O)[C@H](CCCNC(=N)N)NC(=O)[C@H](CCC(N)=O)NC(=O)[C@@H](NC(=O)[C@H](C)NC(=O)[C@@H]1CSSC[C@H](NC(=O)[C@@H](N)CCCCNC(=O)COCCOCCNC(=O)CC[C@H](NC(=O)CCCCCCCCCCCCCCCCCCC(=O)O)C(=O)O)C(=O)N[C@@H](CC(N)=O)C(=O)N[C@@H]([C@@H](C)O)C(=O)N[C@@H](C)C(=O)N[C@@H]([C@@H](C)O)C(=O)N1)[C@@H](C)O)C(=O)N1CCC[C@H]1C(=O)N[C@@H](CO)C(=O)N[C@@H](CO)C(=O)N[C@H](C(=O)N1CCC[C@H]1C(=O)N[C@H](C(=O)NCC(=O)N[C@@H](CO)C(=O)N[C@@H](Cc1c[nH]cn1)C(=O)N[C@H](C(=O)N[C@@H](Cc1ccc(O)cc1)C(N)=O)[C@@H](C)O)C(C)C)[C@@H](C)O
notes: Analogue of human amylin; also called compound 57
B5: N^ε1-[2-[2-[2-[[(4S)-4-carboxy-4-(19-carboxynonadecanoylamino)butanoyl]amino]ethoxy]ethoxy]acetyl]-[Arg17,Pro21,Pro27,Pro34,His35]-h-amylin (peptide)
peptide: K([AEEA-γGlu-C20 diacid])CNTATCATQRLANFLRHSSPNFGAIPSSTNVGPHTY-NH2
modifications: disulfide 2-7; N-terminus assumed
SMILES: CC[C@H](C)[C@H](NC(=O)[C@H](C)NC(=O)CNC(=O)[C@H](Cc1ccccc1)NC(=O)[C@H](CC(N)=O)NC(=O)[C@@H]1CCCN1C(=O)[C@H](CO)NC(=O)[C@H](CO)NC(=O)[C@H](Cc1c[nH]cn1)NC(=O)[C@H](CCCNC(=N)N)NC(=O)[C@H](CC(C)C)NC(=O)[C@H](Cc1ccccc1)NC(=O)[C@H](CC(N)=O)NC(=O)[C@H](C)NC(=O)[C@H](CC(C)C)NC(=O)[C@H](CCCNC(=N)N)NC(=O)[C@H](CCC(N)=O)NC(=O)[C@@H](NC(=O)[C@H](C)NC(=O)[C@@H]1CSSC[C@H](NC(=O)[C@@H](N)CCCCNC(=O)COCCOCCNC(=O)CC[C@H](NC(=O)CCCCCCCCCCCCCCCCCCC(=O)O)C(=O)O)C(=O)N[C@@H](CC(N)=O)C(=O)N[C@@H]([C@@H](C)O)C(=O)N[C@@H](C)C(=O)N[C@@H]([C@@H](C)O)C(=O)N1)[C@@H](C)O)C(=O)N1CCC[C@H]1C(=O)N[C@@H](CO)C(=O)N[C@@H](CO)C(=O)N[C@H](C(=O)N[C@@H](CC(N)=O)C(=O)N[C@H](C(=O)NCC(=O)N1CCC[C@H]1C(=O)N[C@@H](Cc1c[nH]cn1)C(=O)N[C@H](C(=O)N[C@@H](Cc1ccc(O)cc1)C(N)=O)[C@@H](C)O)C(C)C)[C@@H](C)O
notes: Analogue of human amylin; also called compound 58

Target: T1, rat calcitonin receptor
Assay: ratio of binding IC50s: rat calcitonin receptor / rat amylin receptor (reference)

Going from B1 to B2, the “Ratio rCT/rAmylin binding” value rises from 77.2 to 179.

Going from B3 to B4, the “Ratio rCT/rAmylin binding” value rises from 131 to 135.

For B5, the “Ratio rCT/rAmylin binding” value was 76.6.

Target: T2, human calcitonin receptor
Assay: ratio of binding IC50s: human calcitonin receptor / human amylin receptor (reference)
Summary of the method: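 Scintillation proximity competition binding on cell membranes at 35 ng/μL with SPA beads, in 50 mM Hepes pH 7.4, 1 mM CaCl2, 5 mM MgCl₂, 0.1% OA, 0.02% Tween20. Incubated 120 min at 25° C with shaking. IC₅₀ from one-site competition fit.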

Going from B1 to B2, the “Ratio hCT/hAmylin binding” value rises from 51.8 to 146.

Going from B3 to B4, the “Ratio hCT/hAmylin binding” value rises from 42.6 to 133.

For B5, the “Ratio hCT/hAmylin binding” value was 109.

Target: T1, rat calcitonin receptor
Assay: SPA competition vs 125I-calcitonin, membranes of BHK cells with rat calcitonin receptor (Assay VIII)

B1 and B2 are within 1.5-fold of each other in IC50: 6.25 nM for the first, 8.79 nM for the second.

Compared with B3, B4 is 4.6-fold higher in IC50: 5.26 nM for the first, 24.4 nM for the second.

Work on B5 yielded an IC50 of 10.3 nM.

Target: T3, rat amylin receptor (rat calcitonin …)
Assay: SPA competition vs 125I-rat amylin, membranes of BHK cells with rat calcitonin receptor + rat RAMP3 (Assay VI)

Going from B1 to B2, the IC50 falls from 0.081 nM to 0.049 nM (1.7-fold).

Going from B3 to B4, the IC50 rises from 0.04 nM to 0.181 nM (4.5-fold). The first is the more potent here.

In the case of B5, the IC50 is reported as 0.135 nM.
